Source: patent publication US20140086913A1 (Gilead, published 2014)

Legend:
[1] = target: T1, DDR1ECD-Fc (R&D Systems, Catalog #2396-DR) (human, UniProt Q08345 21-416); assay: ELISA, coated antigen, apparent KD
T1 construct: range 21-416; construct as described for the bought immunogen; also called human ECD-DDR1-Fc; Fc-ECD-DR1; not shown: human IgG1, Pro100-Lys330
Procedure, shortened: (§1)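 Plates coated overnight at 4° C with 2 μg/mL purified tagged DDR1 ECD protein, BSA-blocked; serially diluted murine anti-DDR1 mAbs bound 1 hr at room temperature, detected with anti-mouse IgG-HRP and TMB (OD 450). Apparent KD taken as C-parameter of 4-parameter logistic fit of OD versus antibody concentration.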

[2] = target: T2, human ECD-DDR1-His protein (human, UniProt Q08345 21-416); assay: ELISA, coated antigen, apparent KD
T2 construct: also called huDDR1-ECD-His; DDR1ECD-6Xhis; not shown: His tag
Procedure, shortened: as §1

[3] = target: DDR1 endogenously expressed on human cancer cell lines (T47D, HCT-116, A431) (human) (UniProt Q08345); assay: flow cytometry, T47D cells
[4] = target: T3, human DDR2 stably expressed on HEK293 cells (human, UniProt Q16832 22-855); assay: flow cytometry, HEK293/hDDR2
T3 construct: whole, on cells; also called hDDR2
T3 sequence (looked up): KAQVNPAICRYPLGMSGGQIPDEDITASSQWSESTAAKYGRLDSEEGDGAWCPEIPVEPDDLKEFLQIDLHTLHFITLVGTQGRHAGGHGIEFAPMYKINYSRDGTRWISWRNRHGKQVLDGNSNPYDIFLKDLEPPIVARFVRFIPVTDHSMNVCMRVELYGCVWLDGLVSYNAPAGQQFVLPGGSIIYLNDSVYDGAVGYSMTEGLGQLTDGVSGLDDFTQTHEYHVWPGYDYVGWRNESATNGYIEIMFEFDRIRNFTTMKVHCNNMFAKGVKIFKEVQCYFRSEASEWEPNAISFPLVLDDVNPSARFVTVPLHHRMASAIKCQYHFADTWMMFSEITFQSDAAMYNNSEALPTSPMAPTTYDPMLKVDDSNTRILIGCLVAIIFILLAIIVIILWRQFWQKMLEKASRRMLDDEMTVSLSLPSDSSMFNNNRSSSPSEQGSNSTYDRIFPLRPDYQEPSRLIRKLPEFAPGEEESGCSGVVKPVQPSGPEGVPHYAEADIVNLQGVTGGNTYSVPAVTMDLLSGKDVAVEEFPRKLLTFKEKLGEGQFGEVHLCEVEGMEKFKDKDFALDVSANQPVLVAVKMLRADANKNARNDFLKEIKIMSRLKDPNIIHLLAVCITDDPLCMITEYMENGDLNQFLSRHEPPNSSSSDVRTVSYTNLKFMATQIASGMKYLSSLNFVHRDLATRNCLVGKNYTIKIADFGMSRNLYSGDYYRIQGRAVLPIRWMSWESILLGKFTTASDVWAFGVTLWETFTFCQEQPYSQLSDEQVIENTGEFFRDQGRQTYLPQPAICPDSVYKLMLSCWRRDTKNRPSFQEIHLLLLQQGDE
Procedure, shortened: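 Anti-DDR1 mAbs or isotype controls (2 μg per 1×10⁶ cells) were incubated with the stably transfected HEK293 cells at 4 °C for 1 hr, then detected with anti-IgG-PE at 4 °C for 1 hr. Binding was read as flow-cytometry MFI, with vector-only HEK293 background subtracted.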

[5] = target: human DDR1 (isoform B) stably expressed on HEK293 cells (human) (UniProt Q08345); assay: flow cytometry, HEK293/hDDR1
[6] = target: DDR1 endogenously expressed on human cancer cell lines (T47D, HCT-116, A431) (human) (UniProt Q08345); assay: flow cytometry, HCT116 cells

T1 sequence (Q08345 other isoform, or with tags, fused parts or gaps limits assumed): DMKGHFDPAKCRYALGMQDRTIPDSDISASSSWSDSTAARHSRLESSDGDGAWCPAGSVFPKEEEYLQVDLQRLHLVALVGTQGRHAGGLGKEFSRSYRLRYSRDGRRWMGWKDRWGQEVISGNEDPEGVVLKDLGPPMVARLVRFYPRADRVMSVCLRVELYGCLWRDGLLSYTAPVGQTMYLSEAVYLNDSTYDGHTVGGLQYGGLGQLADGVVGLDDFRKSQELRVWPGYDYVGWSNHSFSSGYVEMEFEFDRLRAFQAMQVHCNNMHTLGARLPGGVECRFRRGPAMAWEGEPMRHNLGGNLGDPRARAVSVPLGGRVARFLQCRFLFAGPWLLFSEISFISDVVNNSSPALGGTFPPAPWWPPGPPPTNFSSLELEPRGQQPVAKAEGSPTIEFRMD
T2 sequence (Q08345 21-416): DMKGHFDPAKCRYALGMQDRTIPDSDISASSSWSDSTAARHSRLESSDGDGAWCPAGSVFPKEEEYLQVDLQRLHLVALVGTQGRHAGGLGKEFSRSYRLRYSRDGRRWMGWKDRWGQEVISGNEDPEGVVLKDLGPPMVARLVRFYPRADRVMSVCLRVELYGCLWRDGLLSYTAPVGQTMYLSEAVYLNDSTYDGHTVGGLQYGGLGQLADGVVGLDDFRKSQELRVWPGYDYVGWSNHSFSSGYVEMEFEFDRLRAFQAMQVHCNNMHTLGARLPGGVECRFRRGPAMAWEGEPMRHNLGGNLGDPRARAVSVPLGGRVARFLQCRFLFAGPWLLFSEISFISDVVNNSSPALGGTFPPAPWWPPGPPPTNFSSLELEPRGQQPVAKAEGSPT
Sequence of human DDR1 (isoform B) stably expressed on HEK293 cells (human) (Q08345 19-913): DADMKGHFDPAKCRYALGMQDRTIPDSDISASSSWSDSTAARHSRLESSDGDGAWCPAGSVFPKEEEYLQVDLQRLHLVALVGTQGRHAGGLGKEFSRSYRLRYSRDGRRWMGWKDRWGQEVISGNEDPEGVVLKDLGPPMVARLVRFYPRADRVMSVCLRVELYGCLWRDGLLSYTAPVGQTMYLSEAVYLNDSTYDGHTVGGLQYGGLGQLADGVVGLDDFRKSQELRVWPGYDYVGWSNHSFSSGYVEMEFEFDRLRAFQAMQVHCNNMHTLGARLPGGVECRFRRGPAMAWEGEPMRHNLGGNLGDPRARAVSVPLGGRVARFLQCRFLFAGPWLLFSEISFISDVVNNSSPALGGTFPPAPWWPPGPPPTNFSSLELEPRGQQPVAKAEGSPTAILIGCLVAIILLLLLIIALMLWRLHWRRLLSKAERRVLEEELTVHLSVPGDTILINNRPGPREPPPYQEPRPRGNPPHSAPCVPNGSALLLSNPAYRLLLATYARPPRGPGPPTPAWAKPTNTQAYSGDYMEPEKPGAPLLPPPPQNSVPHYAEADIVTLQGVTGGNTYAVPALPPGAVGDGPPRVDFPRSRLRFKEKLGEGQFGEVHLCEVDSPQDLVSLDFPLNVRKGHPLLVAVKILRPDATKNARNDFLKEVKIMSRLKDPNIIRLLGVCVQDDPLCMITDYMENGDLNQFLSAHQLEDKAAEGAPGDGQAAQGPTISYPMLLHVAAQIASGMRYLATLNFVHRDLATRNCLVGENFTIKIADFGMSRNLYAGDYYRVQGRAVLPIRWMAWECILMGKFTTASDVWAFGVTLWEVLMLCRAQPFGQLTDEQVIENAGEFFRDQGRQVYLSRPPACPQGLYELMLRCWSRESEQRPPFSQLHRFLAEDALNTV

B1: AB2092 (antibody, V domains shown)
VH: QIQLVQSGPELKKSGETVKISCKASGYTFTDYGMNWVKQAPGKGLKWMGWINTYTGKSTYADDFKGRFAFSLETSASTTYLQITNLKNEDMATYFCARWADYFGSSYLFASWGQGTLVTVSA
VL: DVLMTQTPLSLPVSLGDQASISCRSSQSIVHSDGNTYLEWYLQKPGQSPKLLIYKVSNRFSGVPDRFSGSGSGTDFTLKISRVEAEDLGIYYCFQGSHVPWTFGGGTKLEIKR
notes: mouse hybridoma mAb
B1 showed a Kd [1] of 0.287 nM, a Kd [2] of 0.275 nM and an MFI [3] of 3880 MFI. It also gave an MFI [4] of 133 MFI, an MFI [5] of 6020 MFI and an MFI [6] of 1310 MFI.

B2: AB2039 (antibody, V domains shown)
VH: EVQLVESGGGLVQPGGSLKFSCAASGFTFSSYGMSWVRQTPDKRLELVAIINSHGFSTYYPDSVKGRFTISRDNAKNTLYLQMSSLKSEDTAIYYCARGGYGNYGMDYWGQGTSVTVSS
VL: DIVLTQSPASLAVSLGQRATISCRASESVDSYGNSFMHWYQQKVGQPPKLLIFRASNIESGIPARFSGSGSRTDFTLTINSVEADDVATYYCQQSNEAPYTFGGGTKLEIKR
notes: mouse hybridoma mAb; also called AB0039
B2 gave a Kd [1] of 0.346 nM, a Kd [2] of 0.205 nM and an MFI [3] of 4460 MFI. It also gave an MFI [4] of 143 MFI, an MFI [5] of 8020 MFI and an MFI [6] of 1490 MFI.

B3: AB2010 (antibody, V domains shown)
VH: QVQLKQSGPGLVQPSQSLSITCTVSGFSFTGYGIHWVRQSPGKGLEWLGVIWSGGITDYNAAFISRLSISMDSSKGQVFFKMNSLQANDTAIYYCARRSTTVVADYAMDYWGQGTSVTVSS
VL: SIVMTQTPKFLLVSAGDRVTITCKASQSVSNDVAWYQQKPGQSPKLLIYYASNRYTGVPDRFTGSGYGTDFTFTINTVQAEDLAVYFCQQDYTSPLTFGAGTKLELKR
notes: mouse hybridoma mAb
With B3 the Kd [1] was 0.431 nM, the Kd [2] was 0.398 nM and the MFI [3] was 6730 MFI. It also gave an MFI [4] of 647 MFI, an MFI [5] of 17800 MFI and an MFI [6] of 1730 MFI.

B4: AB2041 (antibody, V domains shown)
VH: QVQLHQSGSELAKPGASVKMSCKASGYIFTTYWIHWLKQRPGQGLEWIGFINPDTDYTEYNQKFKDKATLTADKSSNTAYVQLSSLTSEDSAVYYCARGNYGYDGLVYWGLGTLVTVSA
VL: SIVMTQTPKFLLVSAGDRVTITCKASQSVSTDVAWYQQKPGQSPKLLIYYASNRYTGVPDRFTGSGYGTDFTFTISTVQAEDLAVYFCQQDYNSYTFGGGTKLEIKR
notes: mouse hybridoma mAb
Work on B4 yielded a Kd [1] of 0.561 nM, a Kd [2] of 0.617 nM and an MFI [3] of 2210 MFI. It also gave an MFI [4] of 265 MFI, an MFI [5] of 12500 MFI and an MFI [6] of 1270 MFI.

B5: AB2004 (antibody, V domains shown)
VH: DVHLQESGPDLVKPSQSLSLTCTVTDYSITSGYGWHWIRQFPGNKLEWMGYIHYGGSTKYNSSLKSRISITRDTSKNQFFLQLKSVTTDDTGTYYCATSGNYGFAYWGQGTLVTVSA
VL: DIVLTQSPTSLAVSLGQRATMSCRASESVDDYGTSFMHWYQQKPGQPPKLLIYRASNLESGIPARFSGSGSRADFTLSINPVEPDDVATYYCQQSNEDPFTFGSGTKLEIKR
notes: mouse hybridoma mAb
With B5 the Kd [1] was 0.154 nM, the Kd [2] was 0.181 nM and the MFI [3] was 5990 MFI. It also gave an MFI [4] of 289 MFI, an MFI [5] of 14400 MFI and an MFI [6] of 1490 MFI.

B6: AB2078 (antibody, V domains shown)
VH: EIQLQQSGPELVNPGASVKVSCKASGYSFTDYNMYWVKQSHGKSLEWIGYIDPYNGGTSYNQKFKGKATLTVDKSSSTAFMHLNSLTSEDSAVYYCAREYYGSRLWYFDVWGAGTAVTVSS
VL: DIVMTQSPSSLAMSVGQKVTMSCKSSQSLLNRNNQKNYLAWYQQKPGQSPKLLVYFASTRESGVPDRFIGSGSGTDFTLTLSSVRAEDLAENFCQQHYSTPFTFGSGTRLEIKR
notes: mouse hybridoma mAb
In the case of B6, the Kd [1] is reported as 0.374 nM, the Kd [2] is reported as 0.554 nM and the MFI [3] is reported as 4750 MFI. It also gave an MFI [4] of 380 MFI, an MFI [5] of 7490 MFI and an MFI [6] of 1480 MFI.
